Here are results for 1 protein from article PMC6598175.

As usually defined, the Km is the substrate concentration at which the rate is half of its maximum.

Substrate in this series: Cc1cc(=O)oc2cc(O[C@@H]3OC[C@@H](O[C@@H]4OC[C@@H](O)[C@H](O)[C@H]4O)[C@H](O)[C@H]3O)ccc12
Briefly: Substrate hydrolysis kinetics. The class given is biochemical, A. aculeatus. The note with it: other: fluorogenic 4MU substrate, pH 5.0.

B1: …_127619 (Aspergillus aculeatus ATCC 16872) (protein)
chain: VGLDQAAVAKGLQYFGTATDNPELTDIPYVTQLNNTADFGQITPGNSMKWDATEPSQGTFTFTNGDVIADLAEGNGQYLRCHTLVWYNQLPSWVTSGTWTNATLTAALKNHITNVVSHYKGKCLHWDVVNEALNDDGTYRTNIFYTTIGEAYIPIAFAAAAAADPDAKLFYNDYNLEYGGAKAASARAIVQLVKNAGAKIDGVGLQAHFSVGTVPSTSSLISVLQSFTALGVEVAYTEADVRILLPTTATTLAQQSSDFQALVQSCVQTTGCVGFTIWDWTDKYSWVPSTFSGYGAALPWDENLVKKPAYNGLLAG
B1: the Km is 279 µM.
